Key:
[1] = molecular target: T1, His-DEK (UniProt P35659 1-375); assay: EMSA; abolished by 100-fold excess unlabeled DRE1; LightShift Chemiluminescent EMSA Kit (Pierce), per manufacturer; buffer, salt, pH and temperature not stated; details: protein: recombinant; tags: His; label: biotin; blunt
T1 sequence: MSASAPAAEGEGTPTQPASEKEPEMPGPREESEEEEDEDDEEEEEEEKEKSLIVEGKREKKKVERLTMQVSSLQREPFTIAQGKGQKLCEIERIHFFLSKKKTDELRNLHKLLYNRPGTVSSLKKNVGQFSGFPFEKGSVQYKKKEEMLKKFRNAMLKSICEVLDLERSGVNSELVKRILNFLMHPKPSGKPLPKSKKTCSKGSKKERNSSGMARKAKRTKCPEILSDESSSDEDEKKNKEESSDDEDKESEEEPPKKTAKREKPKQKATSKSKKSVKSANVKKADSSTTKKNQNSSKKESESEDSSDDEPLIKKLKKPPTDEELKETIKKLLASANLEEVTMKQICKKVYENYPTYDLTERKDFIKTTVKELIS

[2] = molecular target: T1, His-DEK; assay: EMSA; LightShift Chemiluminescent EMSA Kit (Pierce), per manufacturer; buffer, salt, pH and temperature not stated; details: protein: recombinant; tags: His; label: biotin; blunt

| Binder | binding result [1] | binding result [2] |
| --- | --- | --- |
| DRE1 (dsDNA) DNA 1: GGGTTGAGGGCGTTGGAGCGGGGAGAAGGCCAGGGGT DNA 2: ACCCCTGGCCTTCTCCCCGCTCCAACGCCCTCAACCC | binds |  |
| DRE1-M (dsDNA) DNA 1: GGGTTGAGGGCGGGTTCTATTTGAGAAGGCCAGGGGT DNA 2: ACCCCTGGCCTTCTCAAATAGAACCCGCCCTCAACCC |  | no binding |
| DRE2 (dsDNA) DNA 1: TGGAAAGGGAGGGTTGGGGTGGGTGGGAGCCAGCCCT DNA 2: AGGGCTGGCTCCCACCCACCCCAACCCTCCCTTTCCA |  | no binding |
| HRE (dsDNA) DNA 1: ACAGTGCATACGTGGGCTCCAACAGGTCCTCTTCCCTCCC DNA 2: GGGAGGGAAGAGGACCTGTTGGAGCCCACGTATGCACTGT |  | no binding |

— publication PMC5029660, “The DEK oncogene activates VEGF expression and promotes tumor angiogenesis and growth in HIF-1α-dependent and -independent manners”
